The values below come from patent publication US20180214548A1 (SHANGHAI YUNYI HEALTHCARE AND TECHNOLOGY, published 2018).

Test [1] has as its target T1, full length human PD-1 on cells (human, UniProt Q15116 25-288).
T1 construct: Also used here for PD-1 on human T cells/PBMC; also called CHO-K1-hPD-1; hPD-1
The test can be described thus: cell-based receptor-ligand blocking, flow cytometry: CHO-K1-hPD-1 cells, blocked ligand biotinylated PD-L2-Fc, streptavidin-Alexa 488. Here is the method: CHO-K1-hPD-1 cells were cultured and expanded in T-75 culture flasks to 60-80% confluence. The culture media was aspirated, and the cells were washed twice with PBS. The cells were treated with TrypLE™ Express (Invitrogen) and collected. Trypsin was neutralized by the addition of 8 mL culture medium, and cell counts were determined. […] The cells were blocked for 15 minutes at 37° C. Meanwhile, the wells of 96-well round-bottom plates were blocked with 200 uL blocking buffer for 1 hour at 37° C. The blocking buffer was discarded, and 200 uL cells were dispensed to each well of the 96-well plates (2×10^5 cells/well). The plates were centrifuged at 500 g for 5 minutes, and the supernatants were discarded. The cells were resuspended in 100 uL antibody prepared in blocking buffer. […] The plates were incubated at 4° C. for 90 minutes and washed twice with 200 uL blocking buffer. […] The plates were washed three times with blocking buffer and resuspended in 200 uL blocking buffer. The mean fluorescence intensity (MFI) was determined using FACS Calibur (BD).

For test [2], the target named is T2, human PD-1^ECD-hFc protein (Immunogen A) (human, UniProt Q15116 25-167).
T2 construct: Biotinylated for the Octet assay; also called PD-1-hFc; hPD-1^ECD-hFc; not shown: human IgG Fc fragment (hFc)
T2 sequence (Q15116 25-167): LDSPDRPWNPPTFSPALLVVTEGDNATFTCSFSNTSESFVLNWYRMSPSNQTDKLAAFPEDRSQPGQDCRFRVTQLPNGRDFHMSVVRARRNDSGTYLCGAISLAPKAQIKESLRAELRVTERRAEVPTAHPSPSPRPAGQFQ
The test can be described thus: ELISA, coated human PD-1ECD-hFc; antibody 0.00001 nM. The protocol: (§1) 100 uL of the diluted recombinant proteins were added to each well of 96-well plate. The plates were sealed with plastic film and incubated at 4° C. overnight. The plates were washed twice with wash buffer (PBS+0.01% (v/v) Tween20), and incubated with blocking buffer (PBS+0.01% (v/v) Tween20+1% (w/w) BSA) at room temperature for 2 hours. The blocking buffer was aspirated away, and 100 uL of purified anti-PD-1 antibodies were added to each well and incubated for 2 hours at 37° C. The plates were washed three times with wash buffer (PBS+0.01% (v/v) Tween20). HRP-conjugated secondary antibody (Sigma) was added to each well and incubated for 2 hours at 37° C. After the plates were washed three times with wash buffer, 100 uL TMB substrate was added to each well and incubated for 30 minutes at room temperature. 100 uL stop solution (0.1N HCl) was added to each well to stop the reaction. The absorbance at 450 nm was measured with an ELISA plate reader (384plus SpectraMax, Molecular Devices).

In test [3] the target is T2, human PD-1^ECD-hFc protein (Immunogen A). The test can be described thus: ELISA, coated human PD-1ECD-hFc; antibody 0.001 nM. The protocol:
as §1
(In general: In an ELISA, binding on a coated surface is turned into a signal by an enzyme label.)

T1 sequence (Q15116 25-288 limits assumed): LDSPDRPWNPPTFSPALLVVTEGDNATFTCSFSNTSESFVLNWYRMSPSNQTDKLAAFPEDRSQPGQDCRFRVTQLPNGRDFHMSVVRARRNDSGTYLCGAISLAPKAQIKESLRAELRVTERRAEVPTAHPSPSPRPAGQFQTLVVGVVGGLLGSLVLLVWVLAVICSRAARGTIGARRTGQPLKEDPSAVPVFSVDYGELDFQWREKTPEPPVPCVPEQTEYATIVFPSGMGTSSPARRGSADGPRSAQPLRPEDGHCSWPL

B1: chimeric anti-PD-1 antibody 76G5B3 (antibody, V domains shown)
VH: QVQLVESGGGVVQPGRSLRLSCAASGFTFSDYGFHWVRQAPGKGLEWVAVIWYDGSNEYYTDSVKGRFTISRDNSKNTLYLQMNSLRAEDTAMYFCVVNPFDYWGQGTLVTVSS
VL: DIQMTQSPSSLSAFVGDRVTITCRASQGINHYLAWYQQKPGKAPNLLILAASTLLSGVPSRFGGRGSGTDFTLIISSLQPEDVATYYCQKYDSAPYTFGQGTKLEIK
notes: Purified from hybridoma of Harbour H2L2 mice: human variable regions, rat constant regions
Regarding B1, the “IC50 (read off the curve)” value in test [1] was around 2 nM.

B2: chimeric anti-PD-1 antibody 21G8F11 (antibody, V domains shown)
VH: EVQLLESGGGLAQPGGSLRLSCAASGFSFNTYLMHWVRQAPGKGLEWVSAISGGGGNTYYADSVKGRFTISRDNSKNTLYLQMNSLRAEDTAVYYCAKENRIPVAPFDYWGQGTLVTVSS
VL: DIQMTQSPSTLSASVGDRVTITCRASQSISTWLAWYQQKPGKAPKLLIYKASSLESGVPSRFSGSGSGTEFTLTISSLQPDDLATYYCQQYNSFSWTFGQGTKVEIK
notes: as for B1
For the molecule B2, the figures for the OD450 nm in test [2] and in test [3] were 0.405 and 0.468, respectively.
